Experimental data as given in patent publication US12018084B2, “Anti-CXCR2 antibodies and uses thereof” (Cephalon LLC, priority 2018, dated 2024).
Numbering of substitutions follows the chain as printed.

T1: Murine CXCR2 (Mus musculus, UniProt P35343)
T1 construct: expressed in transfected cells
T1 sequence (P35343 1-359): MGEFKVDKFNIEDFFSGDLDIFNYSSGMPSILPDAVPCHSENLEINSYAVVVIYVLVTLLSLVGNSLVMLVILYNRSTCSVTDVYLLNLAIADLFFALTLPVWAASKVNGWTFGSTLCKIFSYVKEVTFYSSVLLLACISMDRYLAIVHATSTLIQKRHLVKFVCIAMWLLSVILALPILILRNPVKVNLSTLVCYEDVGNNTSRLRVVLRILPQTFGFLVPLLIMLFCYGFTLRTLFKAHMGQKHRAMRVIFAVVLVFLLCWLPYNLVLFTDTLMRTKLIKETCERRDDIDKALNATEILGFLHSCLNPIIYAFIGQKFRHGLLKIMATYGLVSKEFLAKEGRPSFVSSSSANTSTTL

T2: Human CXCR2 (Homo sapiens, UniProt P25025)
T2 sequence (P25025 1-360): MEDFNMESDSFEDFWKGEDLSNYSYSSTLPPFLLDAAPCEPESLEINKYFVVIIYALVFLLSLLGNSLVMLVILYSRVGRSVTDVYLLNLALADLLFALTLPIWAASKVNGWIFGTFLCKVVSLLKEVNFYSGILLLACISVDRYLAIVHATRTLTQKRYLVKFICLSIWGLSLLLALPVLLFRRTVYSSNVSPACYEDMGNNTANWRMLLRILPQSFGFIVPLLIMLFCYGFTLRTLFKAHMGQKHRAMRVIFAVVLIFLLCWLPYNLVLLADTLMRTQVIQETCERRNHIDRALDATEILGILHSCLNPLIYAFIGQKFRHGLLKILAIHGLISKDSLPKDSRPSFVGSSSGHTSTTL

B1: BKO-4A8: parental anti-CXCR2 antibody, VH SEQ ID NO: 17, VL SEQ ID NO: 18 (antibody, V domains shown)
VH: EVQLLESGGGLVQPGGSLRLSCAASGFTFSSSTMSWVRQAPGKGLEWVSAISGRGRNTYYADSVKGRFTISRDNSRNTLYLQMNSLRAEDTAVYYCAIQMGYWGQGILVTVSS
VL: QSALTQPPSASGSPGQSVTISCIGTSSDVGGYNYVSWYQQHPDKAPKLMIYEVNKRPSGVPDRFSGSKSGNTASLTVSGLQAEDEADYYCSSYAGNNNFGVFGGGTKLTVL
modifications: BKO_4A8_VH; BKO_4A8_VL
B2: 101c: VH SEQ ID NO: 108, VL SEQ ID NO: 110; renamed BKO-4A8-101c (antibody, V domains shown)
VH: B1 VH with M34Q, A40P, N57S, R76K, M100A
VL: B1 VL with D43G, N54S, N96S
modifications: 4A8 VH Variant 101 M34Q_A40P_N56S_R75K_M96A; 4A8 VL variant c D41G_N52S_N94S
notes: renamed BKO-4A8-101c

Experiments:
[1] = target: T1, Murine CXCR2; assay: cELISA of hybridoma supernatants on cells transfected with murine CXCR2; assay type: binding; conditions: hybridoma supernatant; fluorescence units relative to positive control (100%)
[2] = target: T2, Human CXCR2; assay: cELISA of hybridoma supernatants on cells transfected with human CXCR2; assay type: binding; design: host or cells: Expi293F cells, vector pTT5; conditions: hybridoma supernatant; fluorescence units relative to positive control (100%)
Method: To generate hybridomas which produced monoclonal antibodies to human CXCR2, splenocytes and/or lymph node cells from animals with the highest anti-CXCR2 titres were isolated and fused to mouse myeloma cells (ATCC, CRL-1580). Cells were plated at approximately 1×10^5 cells/mL in flat bottom microtiter plates, followed by a two week incubation in selective medium (10% FCS and 1×HAT (Sigma)). Hybridomas were expanded by serial passage through four media changes in 96-well plates (96-well stages 1 to 4), then, where required, expanded into T25 and T75 flasks. […] Bound antibodies were detected using a goat anti-rat IgG-HRP (Southern Biotech, #3030-05) secondary antibody.
A panel of hybridomas was generated using lymph nodes and spleen cells from the transgenic rats engineered to express human variable region sequences. A cellular ELISA (cELISA) was used to detect human CXCR2 binding activity in supernatants taken during the expansion process for the hybridomas (Table 5). Hybridomas that retained expression of antibodies that bound CXCR2 after several passages were selected for DNA sequencing.

[3] = target: T2, Human CXCR2; assay: Calcium flux assay, HTS002C-CHEMISCREEN human CXCR2 calcium-optimized cell line; assay type: cell-based
Method: One of the signaling pathways downstream of CXCR2 activation that has a role in cell chemotaxis is characterized by calcium mobilization (flux). The ability of BKO-4A8-101c to inhibit human CXCR2 ligand-induced calcium flux was tested in the commercially available HTS002C-CHEMISCREEN™ human CXCR2 chemokine receptor calcium-optimized cell line.
The Fluo-4 NW calcium assay kit (Life Technologies) was used according to manufacturer's protocol for in-cell measurement of calcium mobilization, which was read using a FLIPR Tetra high-throughput cellular screening system (Molecular Devices). The peak response minus the basal response from each well was used to determine inhibition dose response curves fitting a four-parameter logistic equation and IC50 values.

Molecule | Murine CXCR2 % Positive [1] | Human CXCR2 % Positive [2] | CXCL1 Maximal Inhibition % ([3]; CXCL1 at EC50) | CXCL8 Maximal Inhibition % ([3]; CXCL8 at EC50) | Maximal Inhibition % Mean ([3]; Hu CXCL1) | Maximal Inhibition % Mean ([3]; Hu CXCL2) | Maximal Inhibition % Mean ([3]; Hu CXCL3) | Maximal Inhibition % Mean ([3]; Hu CXCL5) | Maximal Inhibition % Mean ([3]; Hu CXCL6) | Maximal Inhibition % Mean ([3]; Hu CXCL7) | Maximal Inhibition % Mean ([3]; Hu CXCL8)
B1 | 5% | 110% |  |  |  |  |  |  |  |  | 
B2 |  |  | 93% | 9% | 91% | 88% | 52% | 81% | 81% | 43% | 9%
